In the nanobody polyreactivity screen of Harvey et al. (2022):

Assay: yeast display, Sf9 membrane polyspecificity reagent, FACS + sequencing; frameworks hold sequencing errors
Procedure, shortened: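 Sorting gates, low and high (top ~1%), were placed on anti-HA fluorescence to track expression and on streptavidin fluorescence to track reagent binding. A clone's polyreactivity label is taken from the gate it came out of. The reagent was 10% biotinylated, detergent-solubilized Sf9 membrane, applied for 1 hour at 4 °C to galactose-induced yeast display cells.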

Row | Sequence | polyreactivity (PSR sort gate)
1 | HVQLVESGGGLVQAGGSLRLSCAASGSTFNINAMVWYRQAPGKERELFAAISWSGDITYYADSVKGRFTISRDNAKNTVYLLMISLKPEDTAVYYCNTDDPGNYWYAEYDYWGQGTQVTVSS | low polyreactivity
2 | QVQLEESGGGIVQAGGSLRLSCAASGSTFNYYAMGWYRQAPGKERELVAAINSNGGSTYYADSVKGRFTISRDNAKNTVYLQMNSPKPEDTAVYLCAADISPYDYDYWGQGTQVTVSS | high polyreactivity
3 | QVQLVESGGGLVQAGGSLRLSCAASGLTFIINDMGWYRQAPGKERELVAGITNGGSTYADSVKGRFTISRDNAKNTVYLQMNCLKPEDTAVYYCAVPWYDFARSIQVDEYDYWGQGTQVTVSS | low polyreactivity
4 | QVQLVESGGGLVQAGGSLRLSCAASGSIFGGNAMGWYRQAPGKERELVAAITYSGGSTYYADSVKGRFTISRDNAKNTVYLQMNSLKPEDTAVYYCAASASVRGGGADQYVIAFDYWGQGTQVTVSS | low polyreactivity
5 | QVQLVESGGGLVQAGGSLRLSCAASGFTFYRYVMGWYRQAPGKERELVAAISWNGGRTYYADSVKGRFTISRDNAKNTVYLQMNSLKPEDTAVYYCAAVPGSRSYGGDYWGQGTQVTVSS | high polyreactivity
6 | QVQLVESGGGLVQAGGSLRLSCPASGFTLHSYAMGWYRQAPGKERELVAAITRSGGGTYYADSVKGRFTISRDNAKNTVYLQMNSLKPEDTAVYYCAARFGGQYQHDYWGQGTQVTVSS | high polyreactivity
7 | QVQLVESGVGLVKAGGSLRLSCAASGSTFRGYAMGWYRQAPGKERELVAAITYISDTTNYADSVKGRFTISRDNAKNTVYLQMNSLKPDDTAVYYCNAYYDGVWRYTSQETGDHWGQGTQVTVSS | low polyreactivity
8 | QVQLVESGGGLVQAGGSLRLSCAASGGIFGYNAMGWYRQAPGKERELVAAISRGTTTNYADSVKGRFTISRDNAKNTVYLQMNSLKPEDTAVYYCAADQPSKRYYYWGQGTQVTVSS | low polyreactivity
9 | QVQLVESGGGLVLAGGSLRLICAGSGRIFYTNTMGWYRQAPWKGRELVAAIRSGTRTYYADSVKGRFTISRDNAKNTFYLLMNILKPEATAVYYCAAYYSYYGGDYWGQGTQVTVSS | low polyreactivity
10 | QVQLVESGGGLVQAGGSLRLSCAASGRTFYANAMGWYRQAPGKERELVAAISWGGGSTYYADSVKGRFTISRDNAKNTVYLQMNSLKPEDTAVYYCNADLGRATFYQRVFIERGGYWGQGTQVTVSS | low polyreactivity
11 | QVQLVESGGGLVQAGGSLRLSCAASGSILDIYAMGWYRQAPGKERELVASISWGGGSTYYADSVKGRFTISRDNAKNTVYLQMNSLKQEDTAVYYCNAVYDLYHYWKFYYWGQGTQVTVSS | low polyreactivity
12 | QVQLVESGGGLVKAGGSLRLSCAASGRTFASYAMGWYRQAPGKERELVAVITRGGRTYYADSVKGRFTISRDNAKNTVYLQMNSLKPEDTAVYYCNAAYYSSSYLEDYWGQGTQVTVSS | high polyreactivity
13 | QVQLVESGGGLVQAGGSLRLSCAASGRIFGRYAMGRYRQAPGKERELVAAISSTVGSTYYADSVKGRFTISRDNAKNTVDLQMNSLKPEDTAVYYCATVWYGSYYWATEYWGQGTQVTVSS | high polyreactivity
14 | QVQLVESGGGLVQAGGSLRLSCAASGRIFRSNGMGWYRQAPGKERELVAAITYRGGNTYYADSVKGRFTISRDNAKNTVYFQMNSLKPEDTAVYYCANQGVRRHYGYDYWGQGTQVTVSS | high polyreactivity
15 | QVQLVESGGGLVQAGGSLRLSCAASGSTFAYNAMGWYRQAPGKERELVATMSYSGGTTDYADSVKGRFTISRDNAKNTVYLQMNSLKPEDTAVYYCNADHLTWGGWGIRKYDYWGQGTQVTVSS | high polyreactivity
16 | QVQLVESGGGLVQAGGSLRLSCAASGSILYYYAMGWYRQAPGKERELVAAITRSGGSTYYADSVKGRITISRDNAKNTVYLQMNSLKPEDTAVYYCAKDAHAYRDLDYWGQGTQVTVSS | low polyreactivity
17 | QVQLEESGGGLVQAGGSLRLSCAASGRTFVYYAMGWYRTATGKQRELVAAITSSGSRTYYADSVKGRFTFSRDNAKNTVYLQMNSLKPEDTAVYYCAADYVAHGDYRVLYDYWGQGTQVTVSS | low polyreactivity
18 | QVQLVESGGGLVQAGGSLRLSCAASGRTMNSNAKGSYRQAPGKEREFVAAITSGGSTNYADSVKGRFSLSRDNAKNTVYLQMTSLKPEDTAVYYCAVRGYWTIRCRRYYYWGHGTQVTVSS | high polyreactivity
19 | QVQLVESGGGLVQAGGSLRLSCAASGFTFPYYAMGWYRQAPGKERELVAAISQGGASTRYADSVKGRFTISRDNAKNTVYLQMNSLKPEDTAVYYCAAKSRHFWMDYWGQGTQVTVSS | high polyreactivity
20 | QVQLVESGGGLVQAGGSLRLSCAASGSILAGYAMGWYRQAPGKERELVAAITGGYVRSYYADSVKGRFTISRDNAKNTDYLQMNSLKPEDTAVYYCAATWGSVQKGTYYYWGQGTQVTVSS | low polyreactivity

Row | Sequence | polyreactivity (PSR sort gate)
21 | QVQLQESGGGLMQAGGSQRLSCAASGSITYYSDMGCYRQAPGKELEFVAAIGYGTTTNYADSVKGRFTTSRDNAKYTVYLQMISMKPEDTAVYYCAAYQGKGYEFYYWGQGTQVTVRS | low polyreactivity
22 | QVQLVESGGGLVQAGGSLRLSCAASGSNFVTYAMGWSRQAPGKERELVAAISSSGTSTYYADSVKGRFTISRDNAKNTVYLQMNSLKPEDTAVYYCAAYLRGYDYGYWGQGTQVTVSS | high polyreactivity
23 | QVQLVESGGGLVQAGGSLRLSCAASGSIFTVNAMGWYRQARGKERELVAAISSGGSTHYADSVKGRFTISRDNAKNTVYLQMNSLKPEDTAVYYCARDRPGDYAGYDYWGQGTQVTVSS | low polyreactivity
24 | QVQHEESGGGLVQAGGSLRLSCAASGSIFYDNGMGWYRPAPGKERELVAAISRGGTTNYADSVKGRFTISRDKAKNTVYFQMNSLKPEDTAVYYCNADTRFTYWGSWYDYWGQGTQVTVSS | low polyreactivity
25 | QVQLVESGGGLVQAGGSLRLSCAASGSIFNEYAMGCYRQAPGKERELVAAISTSGDITYYADSVKGRFTISRDNAKNTVDLQMNSLKPEDTAVYYCAAKYSLLRQYNRLDSWGQGTQVTVSS | low polyreactivity
26 | QVQLVESGGGLVQAGGSLRLSCAASGFTFRTYAKGWYRQAPAKERELVADISGSGGSTYYADSVKGRFTISRDNAKNTVYLQMNSLKPEDTAVYYCAADYASWSNWGYEYWGQGTQVTVSS | high polyreactivity
27 | QVQLVESGGGLVQAGGSLRLSCAASGLTFRYYAMGWYRQAPGKERELVAAITRRGSTYYADSVQGRFTISRDNAKNTVYLQMNSLKPEDTAVYYCAADDPYTPQYPDVTYDYWGQGTQVTVSS | high polyreactivity
28 | QVQLVESGGGLVQAGGSLRLSCAASGSTFGYNDMGWYRQAPGKERELVAAISVSDSSTYYADSVKGRFTISRDYAKNTVYLQMNCLKPEDTAVYYCAAEYYVGFTYRYEYWGQGTQVTVSS | low polyreactivity
29 | QVQLVESGGALVQAGGSLRLSCAASGSTFVTYAMGWYRQAPGKEREFVAAISWRGGRTYYADSVKGRFSISRDNAKNTVYLQMNSLKPEDTAVYYCAVRTLQRGKHDLGVDYWGQGTQVTVSS | high polyreactivity
30 | QVQLVESGGGLVQAGGSLRLSCAASGYIILLYAMGWYRQAPGKERELVAAISTRDGSTYYADSVKGRFTISRDNGKITVYLQMNSLNPEDTAVYYCATLYYYNYCGQGTQVTVSS | high polyreactivity
31 | QVQLVESGGGLVQAGGSLRLSCAASGRIFIGNAMGWYRQAPGKERELVAAISKRGGSTYYADSVKGRFTISRDNAKNTVYLQMNSLKQEDTAVYYCNKESLYREFDYWGQGTQVTVSS | low polyreactivity
32 | QVQLVESGGGLVQAGGSLRFSCAASGLIFRGYVMGWYRQAPGKERELVAAISRRGVNTYYADSVKGRFTISRDNAKNTVYLQMNSLKPEDTAVYYCAAETHVGWPAKFDYWGQGTRVTVSS | high polyreactivity
33 | QVQLVESGGGLVQAGGSLRLSCAASGFTFPYYAMGWYRQAPGKERELVADITSGGGTNYADSVKGRFTISRDNAKNTVFLQMNSLKPEDTAVYYCAADAYHQGMDYWGQGTQVTVSS | low polyreactivity
34 | QVQLVESGGGLVQALGSLRLSCAASGTTFNSNVMGWYRPAPGKERELVAGNNTTYYADSVKGRFTISRDNAKNTVYLQMNSLKPEDTAVYYCNGSEDAPAIEYLAPDGHDGYWGQGTQVTVSS | low polyreactivity
35 | QVQLVESGGGLVQAGGSLRLSCAASGSTIPYYAMGWYRPAPGKERELVARIRWNGDSTYYADSVKGRFTISRDNAKNTVYLQMNSLKPEDTAVYYCARQGYTLYRTRYRYDYWGQGTQVTASS | high polyreactivity
36 | QVQLVESGGGLVQAGGSLRLSCAATGRIFYSNAMGWYRQAPGKERELVAVIRRTGSTYYADSVKGRFTISRDNAKHTVYLQMNSLKPEDTAVYYCATRIPYGRGGNRYDYWGQGTQVTVSS | low polyreactivity
37 | QVQLVESAGGLVQAGASLRLSCAASGYIFFGNAMGWYRQAPGKERELVAAIRWRGTSTYYADSVKGRFTISRDNAKNTVYLQMNSLKPEDSAVYYCAADVVRSNFYGTFLYDYDYWGQGTQVTVSS | low polyreactivity
38 | QVQLVESGGGLVQAGGSLRLRCAASGRTFKRKAMGWYRQAPGKEREFVAVITGSGGSTYYADSVKGRFTISRDNAKNTVYLQMNSLKPEDTAVYYCAAALGLRSTSWGRRGGGGVYWGQGTQVTVSS | high polyreactivity
39 | QLQLVESGGGLVQAGGSLRLSCAASGFTFYLYVLGWYRQAPGKEREFVAAITGSGTSTYYADSVKGRFTISRDNAKNTVYLQMNSLKPEDTAVYYCNAKRDRYFYTVKYDYWGQGTQVTVSS | low polyreactivity
40 | QVQLVESVGGLVQSGGSLRLSCAASGFTFYRYGIGWYREAPGKERELVAAITSGGITYYADSVKGRFTISRDNAKNTVYLQLNSLKPEDTAVYYCNAVYPVAAIVRYDYWGQGTQVTVSS | high polyreactivity
